Test results taken from patent US5942405A, “Therapeutic and screening methods using C3a receptor and C3a” (priority 1997, dated 1999).

Assays:
C3a Receptor = target: T1, C3a Receptor (Homo sapiens, UniProt Q16581); test: C3a binding to HEK 293 cells stably expressing C3a Receptor mRNA; parameters: cDNA encoding a complete orphan GPCR of 482 amino acids; expressed in transfected cells; details: data not shown
T1 sequence (Q16581 1-482 F151C): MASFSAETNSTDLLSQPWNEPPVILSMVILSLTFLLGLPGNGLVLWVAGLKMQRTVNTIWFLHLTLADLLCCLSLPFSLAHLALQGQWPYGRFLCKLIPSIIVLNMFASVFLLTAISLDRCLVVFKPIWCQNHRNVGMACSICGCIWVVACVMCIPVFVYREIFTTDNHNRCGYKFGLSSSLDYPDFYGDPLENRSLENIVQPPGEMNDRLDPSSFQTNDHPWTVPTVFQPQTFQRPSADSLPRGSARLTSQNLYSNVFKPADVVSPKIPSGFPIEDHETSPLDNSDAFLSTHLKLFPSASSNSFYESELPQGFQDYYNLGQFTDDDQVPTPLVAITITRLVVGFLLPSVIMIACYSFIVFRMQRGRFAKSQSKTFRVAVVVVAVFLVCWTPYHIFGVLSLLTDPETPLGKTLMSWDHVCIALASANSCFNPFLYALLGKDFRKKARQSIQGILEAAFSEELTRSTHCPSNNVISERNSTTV
From the text: C3a was radioiodinated and used in whole cell binding assays to further characterize C3a Receptor. […] Curiously, HEK 293 cells stably expressing C3a Receptor mRNA by Northern Blot, neither bound nor responded to C3a (data not shown).

guinea pig ileal tissue = details: C3a and C4a; cited from earlier work

In the case of “C3a: C3a was purchased from Advanced Research Technologies, San Diego; anaphylatoxin; radioiodinated for binding”, the “binding of C3a to HEK 293 cells expressing C3a Receptor mRNA” value (C3a Receptor) is given as “neither bound” and the “cross desensitization of guinea pig ileal tissue” value (guinea pig ileal tissue) is given as “cross desensitize”.
